The data set deals with Mre11 (PfuMR complex);Rad50 (PfuMR complex) (Pyrococcus furiosus;Pyrococcus furiosus, UniProt Q8U1N9;P58301 1-426;1-882, |). Nature of the data set: EMSA. On the technique in general: Mobility shift assays separate free from complexed probe on a gel.
Chain of Mre11 (PfuMR complex);Rad50 (PfuMR complex) (P58301 whole entry, one chain of several): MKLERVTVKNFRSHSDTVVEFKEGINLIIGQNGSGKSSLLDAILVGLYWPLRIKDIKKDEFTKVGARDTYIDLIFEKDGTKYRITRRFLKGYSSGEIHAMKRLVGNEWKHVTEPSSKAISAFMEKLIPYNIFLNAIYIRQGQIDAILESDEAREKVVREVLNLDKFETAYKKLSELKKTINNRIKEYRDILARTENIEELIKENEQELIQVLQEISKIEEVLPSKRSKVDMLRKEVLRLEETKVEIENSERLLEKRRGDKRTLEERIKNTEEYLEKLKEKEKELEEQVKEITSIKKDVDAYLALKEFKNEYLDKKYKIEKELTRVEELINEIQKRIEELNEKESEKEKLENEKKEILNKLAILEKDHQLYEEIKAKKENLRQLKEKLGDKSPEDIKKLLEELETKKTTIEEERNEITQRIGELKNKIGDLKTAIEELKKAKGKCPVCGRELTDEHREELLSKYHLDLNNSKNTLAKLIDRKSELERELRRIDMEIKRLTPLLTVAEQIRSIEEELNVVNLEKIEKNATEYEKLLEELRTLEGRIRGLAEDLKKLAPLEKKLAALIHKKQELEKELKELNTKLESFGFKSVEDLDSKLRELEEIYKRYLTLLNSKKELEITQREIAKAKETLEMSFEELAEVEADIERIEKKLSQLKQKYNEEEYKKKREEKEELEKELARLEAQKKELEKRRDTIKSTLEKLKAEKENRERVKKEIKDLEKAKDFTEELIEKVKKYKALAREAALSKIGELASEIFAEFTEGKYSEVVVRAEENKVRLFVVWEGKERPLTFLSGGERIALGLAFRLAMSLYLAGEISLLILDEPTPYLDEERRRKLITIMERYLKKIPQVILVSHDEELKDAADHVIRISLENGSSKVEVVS

B1: S50/50s (dsDNA)
DNA 1: CTGCAGGGTTTTTGTTCCAGTCTGTAGCACTGTGTAAGACAGGCCAGATG
DNA 2: CATCTGGCCTGTCTTACACAGTGCTACAGACTGGAACAAAAACCCTGCAG
modifications: phosphorothioate bonds at the last 5 linkages of the 3' end of strand 2 (CCCsTsGsCsAsG)
For B1, the binding result is “binds”.
